Data from the supplement of paper PMC12042874.
± gives the uncertainty stated by the source.

assay: amyloid nucleation score (Sup35N fusion, yeast selection) (log enrichment); library NNK3; higher = more nucleation; inactive = no reads after selection
Procedure, shortened: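 Using DiMSum, nucleation scores were taken as the log enrichment of output over input reads, centred on the mode score of non-aggregating sequences. The input and output reads came from Illumina sequencing of plasmid inserts, with sequences under 100 input reads excluded. The yeast were psi-negative, expressed Sup35N fused to peptides of 20 random codons, were induced with 100 μM copper sulfate for 24 hours, and were grown 7 days at 30°C on medium lacking adenine and uracil.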

| Substance | amyloid nucleation score |
| --- | --- |
| CIIFYCIYGFN | 3.04 ± 0.073 |
| CILSVHGGILLFSIGAAFGR | 0.779 ± 0.27 |
| CILYYLNSSMVIGTCLFILN | 1.36 ± 0.085 |
| CISKCLVNNV | inactive |
| CIYCIVA | 2.64 ± 0.087 |
| CIYGKVFF | 0.309 ± 0.28 |
| CKARTSASSNQHRESVYGLE | inactive |
| CKCEQVFLGLNLRYKEHDAW | inactive |
| CKFFQGKEEVS | inactive |
| CKILHDRHMYVCLFAYCFVC | inactive |
| CKRLPIACLTSLTKAR | inactive |
| CKTMFYY | inactive |
| CLDARYKMRV | inactive |
| CLFGHGY | inactive |
| CLFREA | inactive |
| CLFWMTWDVSRDS | inactive |
| CLGGQRHDVLPVCCWEFIME | inactive |
| CLGLHQILM | inactive |
| CLHLWGVFKFFDVYWIMLMG | inactive |
| CLMKIWLTVEGTSHRALGFR | inactive |
| CLNFFPSNSWILFILMIVQK | inactive |
| CLNGSCAMLSGLVCLLCNRQ | 2.38 ± 0.058 |
| CLRECWCSGNTTHGSHWSTC | inactive |

| Substance | amyloid nucleation score |
| --- | --- |
| CLSRSCSFFYKATYLRSEMM | inactive |
| CLSSSETPFSGDRTMA | -0.046 ± 0.52 |
| CLVSLVFRFIVY | inactive |
| CLYLAS | inactive |
| CMAFLHPLF | inactive |
| CMIHYSSRAILEMWLAPRMY | inactive |
| CMRLLTWIKPNWLLLVCLKT | inactive |
| CMVCYLLPGSVSTCSCVRGI | 2.75 ± 0.064 |
| CNFVNSKRNFLYTLG | inactive |
| CNHVLTNRLMHSSKNRCLFI | inactive |
| CNMDISVCYYRLLMWQRGFR | inactive |
| CNMGYSIFVFILNLSPV | 1.99 ± 0.09 |
| CNNMYRERNNFWILMEWSLL | inactive |
| CNPQTFSFVLMVRLCSKSGV | inactive |
| CNTPR | inactive |
| CNVNIHYFGTV | inactive |
| CNVRSFRFRCSGSPHSARSS | inactive |
| CNYFVF | inactive |
| CNYLTMSGF | inactive |
| CNYNGLESILR | inactive |
| CPCGNVGVFLGLTRTVKGKS | inactive |
| CPIWKDRDCFLLSIKYYALQ | -0.24 ± 0.31 |
| CPMVLSQEGSTAPEQCVGLG | inactive |

| Substance | amyloid nucleation score |
| --- | --- |
| CPTCESGKERGVKYVKFLNW | inactive |
| CPYLSSVLHDAQLKATFING | 1.11 ± 0.096 |
| CQGIMDRRTSKRMPIANMVQ | inactive |
| CQIKNGLDNQKTDYNSSPF | inactive |
| CQPNWGWCSARIVLHILVLR | inactive |
| CRFFSGFLRPRSNVGGNRYS | inactive |
| CRFVNLFGCVGS | inactive |
| CRGTEAGHPHVGIDHRARMV | -0.957 ± 1.8 |
| CRLSGEYFIDTDPEVFLALM | 0.397 ± 0.17 |
| CRRVTKFESAFTWIFCKSCD | -0.013 ± 0.39 |
| CRSGCAVYS | inactive |
| CRTHSDVVVSTHFMNAWLSI | inactive |
| CRVPSLVIC | inactive |
| CRVRGAVRSLLHTVFKVDWV | inactive |
| CRYQCRQLKVIVCSGDWNLV | inactive |
| CRYSSYVPVGLYKKWGICWM | inactive |
| CRYSYSELKFVLFSGVGTSD | inactive |
| CSFIGYHGFVCLSVDIVLGC | 1.51 ± 0.12 |
| CSGSDKVWTCLFLYAKKPRW | inactive |
| CSGYARTLS | inactive |
| CSGYSTNFGK | inactive |
| CSIGVRSVVCS | inactive |
| CSLIQSVRSTA | inactive |

| Substance | amyloid nucleation score |
| --- | --- |
| CSLRLVAFSACGV | inactive |
| CSNAGTCPCLCYRAILDQWV | -0.401 ± 0.84 |
| CSNRFSNHFMYYVSMLGDGL | inactive |
| CSPGRIFHNGK | inactive |
| CSRALYGCDRISRGLLEVCG | inactive |
| CSSGYIQKMVSRYMSYGYHF | inactive |
| CSTCISTNFSPY | inactive |
| CSVGS | inactive |
| CSVLC | inactive |
| CSVVWIMV | -0.852 ± 0.8 |
| CSYRRLIFILCD | inactive |
| CTFDWVLITLVEGSRAIW | inactive |
| CTHHKNACL | inactive |
| CTNCNAKAYPWGTVSMPREW | inactive |
| CTRNEYIEW | inactive |
| CTSLRLESPDFFSKRERSSN | inactive |
| CTTVDVGALVDGESNHCISL | inactive |
| CTYDSLRILAYRANQTNWFQ | -0.278 ± 0.47 |
| CVCPKANVEYPMACFRHIIV | inactive |
| CVGMEVCGWEGS | inactive |
| CVHYRFMLSRLYMILVPLTY | inactive |
| CVNLYVELKFNHFDFVS | 2.04 ± 0.09 |
| CVNVLQPGVTHSRMANLCSG | inactive |

| Substance | amyloid nucleation score |
| --- | --- |
| CVRYWKLGVVLRDG | inactive |
| CVSDNSS | -0.003 ± 0.8 |
| CVSGASKVNWGSCY | inactive |
| CVSSLIAKMGIVGCDGCYKG | inactive |
| CVTSVAWANKICARQLFGAD | 0.204 ± 0.37 |
| CVVNSGFNLSCMIVSQSVSL | inactive |
| CVVYIGCNATGFKC | 1.87 ± 0.059 |
| CWDEIHIMKAHIRSYGGSVS | inactive |
| CWDYWACGQGTA | inactive |
| CWRVYYLNVWVEVES | inactive |
| CWSSIYSNDQDFYWKSPLLS | inactive |
| CYADPG | inactive |
| CYCVGHAVLCRPEHLCSVRL | inactive |
| CYFQYGNWFHLEGRNRSRSN | 1.17 ± 0.19 |
| CYFVSVKLLTGVKLSHKYL | 1.25 ± 0.15 |
| CYGNSMIGVFRICFHSLVYV | inactive |
| CYMYVRNGHLEIFLMGLSGF | inactive |
| CYPVSVQYNGV | inactive |
| CYSCSMLFISWLCRYRSTQY | 1.02 ± 0.12 |
| CYSGCEWSTYMLMGVLKVVS | inactive |
| CYTMSNVRVPWKRGICYCGL | inactive |
| CYWVRDSRLGW | inactive |
| DACTVVCVCIQSIRGSQVSC | 1.09 ± 0.15 |

| Substance | amyloid nucleation score |
| --- | --- |
| DADTW | inactive |
| DAFYIFWLDTSWFRWYAGTS | -0.131 ± 0.61 |
| DAIIVSIAYILG | inactive |
| DAISVLCFLLKSFRWSTFRG | inactive |
| DANGCA | inactive |
| DAVGCNILACDSGGRDWTGG | -0.744 ± 1.2 |
| DCIYRDVCFNFTYMCKVNAQ | inactive |
| DCKLVDIDSLLVTFDR | inactive |
| DDFSVPTDLIDVRRVS | -0.047 ± 1 |
| DDIRCMFRTADFRAKMSVNS | inactive |
| DDVLYS | -0.19 ± 0.34 |
| DDVTHISLKKNSDNLGYNSR | inactive |
| DFARGYGDNALVFYLYGLMY | -0.684 ± 0.8 |
| DFFAHVNAIG | inactive |
| DFLFTNFSNSDLRGILCQSF | inactive |
| DFSSWSFYHYPLVGQSSYTS | inactive |
| DFTCDPSTLNSRRLSEDLIR | inactive |
| DFYEIRTSGCDLYMFRGVVA | inactive |
| DFYGYSY | inactive |
| DGAYYGLCMMFNVSVLMGII | 0.063 ± 0.51 |
| DGDFIWISYVRKPKVNNDMF | inactive |
| DGGCSKIVRQTLWLNPLGNS | inactive |
| DGKQVRGPGVAQSGANNGLE | inactive |

| Substance | amyloid nucleation score |
| --- | --- |
| DGLIECWDFNRIMGLNKQNK | -1.33 ± 1.9 |
| DGLYSTNQRSIAPHLTQPID | inactive |
| DGMFSFGSLCRYAELETSGK | inactive |
| DGMNSPRMEIRDRDRSAYIL | inactive |
| DGNFNQRYAHLDRSGCWL | inactive |
| DGRAWRALRGPK | inactive |
| DHFMNGMKQYTCRYFVLWPS | inactive |
| DHVGADMGLCDNVG | inactive |
| DIFCLVVTYAERLLYLKTRT | -0.09 ± 0.75 |
| DIFSRSVS | inactive |
| DIFTPILMLCWV | inactive |
| DIKVMNLCLNWFFRLIHGV | inactive |
| DILFDGESLFPYTENSWETR | inactive |
| DIQNFHQKTKGCLLFVWRRQ | inactive |
| DIRRSYTLVRTGFTV | inactive |
| DISFLSRSRYRKSHGVVNFS | 0.206 ± 0.43 |
| DISHKLNTTIVMYFREALRG | inactive |
| DISPYFLYE | inactive |
| DIYMMLICGWGLGKLIPGFM | inactive |
| DKDRVVSCMMTLLLSVGCAV | inactive |
| DKKGK | inactive |
| DLCVLAMASFEVAIAHGRPR | 0.172 ± 0.88 |
| DLIVILLTSYMYENVVVLNF | inactive |
